B1: 1.24a (VHH)
VHH: EVQLVESGGGLVQPGRSLRLSCAASGFTFDDYAMHWVRQAPGKDLEWVSGISWNSGSMGYAASVKGRFTISRDNAKNSLYLQMNSLRAEDTALYYCVREKGPGLTGSTADYYGLDAWGQGTMVTVSS
B2: 1.36a (VHH)
VHH: EVQLVESGGGLVQPGRSLRLSCAASGFTFDDYAMHWVRQAPGKDLEWVSGISWNAGSMGYADSVKGRFTISRDNAKNSLYLQMNSLRAEDTALYYCVREKGPGLTGSTADYYGLDAWGQGTMVTVSS
B3: 1.35a (VHH)
VHH: EVQLVESGGGLVQPGRSLRLSCAASGFTFDDYAMHWVRQAPGKDLEWVSGISWNGGSKGYADSVKGRFTISRDNAKNSLYLQMNSLRAEDTALYYCVREKGPGLTGSTADYYGLDAWGQGTMVTVSS
B4: 1.32a (VHH)
VHH: EVQLVESGGGLVQPGRSLRLSCAASGFTFDDYAMHWVRQAPGKDLEWVSGISWNSGSMGYADSVKGRFTISRDNAKNSLYLQMNSLRAEDTALYYCVREKGPGLTGSTADYYGLDAWGQGTMVTVSS
B5: 1.29a (VHH)
VHH: EVQLVESGGGLVQPGRSLRLSCAASGFTFDDYAMHWVRQAPGKDLEWVSGISWNSGSMGYADSVKGRFTISRDNAKNSLYLQMNSLRAEDTALYYCVREKGPGLTGSTADYYGLDVWGQGTMVTVSS
B6: 1.30a (VHH)
VHH: EVQLVESGGGLVQPGRSLRLSCAASGFTFDDYAGHWVRQAPGKDLEWVSGISWNGGSMGYAASVKGRFTISRDNAKNSLYLQMNSLRAEDTALYYCVREKGPGLTGSTADYYGLDAWGQGTMVTVSS
B7: 1.28a (VHH)
VHH: EVQLVESGGGLVQPGRSLRLSCAASGFTFDDYAMHWVRQAPGKDLEWVSGISWNAGSMGYAASVKGRFTISRDNAKNSLYLQMNSLRAEDTALYYCVREKGPGLTGSTADYYGLDAWGQGTMVTVSS
B8: 1.31a (VHH)
VHH: EVQLVESGGGLVQPGRSLRLSCAASGFTFDDYALHWVRQAPGKDLEWVSGISWNGGSMGYAASVKGRFTISRDNAKNSLYLQMNSLRAEDTALYYCVREKGPGLTGSTADYYGLDAWGQGTMVTVSS
B9: 1.34a (VHH)
VHH: EVQLVESGGGLVQPGRSLRLSCAASGFTFDDYAMHWVRQAPGKDLEWVSGISWNGGSQGYADSVKGRFTISRDNAKNSLYLQMNSLRAEDTALYYCVREKGPGLTGSTADYYGLDAWGQGTMVTVSS
B10: 1.27a (VHH)
VHH: EVQLVESGGGLVQPGRSLRLSCAASGFTFDDYAMHWVRQAPGKDLEWVSGISWNGGSRGYAASVKGRFTISRDNAKNSLYLQMNSLRAEDTALYYCVREKGPGLTGSTADYYGLDAWGQGTMVTVSS
B11: 1.25a (VHH)
VHH: EVQLVESGGGLVQPGRSLRLSCAASGFTFDDYAMHWVRQAPGKDLEWVSGISWNGGSQGYAASVKGRFTISRDNAKNSLYLQMNSLRAEDTALYYCVREKGPGLTGSTADYYGLDAWGQGTMVTVSS
B12: 1.33a (VHH)
VHH: EVQLVESGGGLVQPGRSLRLSCAASGFTFDDYAMHWVRQAPGKDLEWVSGISWNGGSYGYADSVKGRFTISRDNAKNSLYLQMNSLRAEDTALYYCVREKGPGLTGSTADYYGLDAWGQGTMVTVSS

molecular target: T1, human PD-1 expressed on cells (CHO TREX human PD1 cell line, full-length human PD-1 sequence) (human, UniProt Q15116 21-288); assay: worded summary of the screens
T1 construct: Also used for human PD-1 on Jurkat reporter cells, on PathHunter cells and on PHA-stimulated human CD4+ T cells; also called CHO human PD1 cells; CHO human PD-1 cells
T1 sequence (Q15116 21-288): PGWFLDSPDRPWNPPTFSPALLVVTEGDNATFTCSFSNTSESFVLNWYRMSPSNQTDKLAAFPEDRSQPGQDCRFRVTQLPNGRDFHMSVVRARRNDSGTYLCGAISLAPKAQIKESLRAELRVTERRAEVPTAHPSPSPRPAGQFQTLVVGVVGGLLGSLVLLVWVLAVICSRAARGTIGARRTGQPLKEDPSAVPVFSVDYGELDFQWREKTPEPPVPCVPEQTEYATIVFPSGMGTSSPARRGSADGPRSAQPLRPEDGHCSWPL

Binding result, binds:
B1
B2
B3
B4
B5
B6
B7
B8
B9
B10
B11
B12
